Values of other authors in US7435406B2, “Methods for conducting metabolic analyses” (Target Discovery, Inc., priority 1999, dated 2008).

B1: Bovine ribonuclease A: protein standard from Sigma-Aldrich, Cat # R 5503 (protein, UniProt P61823 27-150, looked up)
Ribonuclease pancreatic: KETAAAKFERQHMDSSTSAASSSNYCNQMMKSRNLTKDRCKPVNTFVHESLADVQAVCSQKNVACKNGQTNCYQSYSTMSITDCRETGSSKYPNCAYKTTQANKHIIVACEGNPYVPVHFDASV

Details: protein standards obtained from Sigma-Aldrich

| Molecule | pl |
| --- | --- |
| Carbonic anhydrase II: protein standard from Sigma-Aldrich, Cat # T 6522 | 4.5 |
| B1 | 9.6 |
